The supplement of paper PMC12764529
± gives the half width of the 95% confidence interval.

Assays:
[1] = folding stability dG unfold from chymotrypsin proteolysis; higher = more stable
Method: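 Folding stability of de novo designed mini-proteins (<80 aa, no Cys; designed by TrROS, TrMRF, ProteinMPNN and the joint model) was measured by cDNA display proteolysis with trypsin and chymotrypsin. Each protease was used at 11 concentrations in a threefold dilution series plus a no-protease condition. K50 was inferred by Bayesian fitting of sequencing counts, and dG unfold was derived against a sequence-predicted unfolded-state K50 (Tsuboyama et al. method). Sequences shown include variable-length N-terminal GS-type padding (SAGGSAGG...) inside a display construct carrying a PA tag. Rows were kept only if the AF2 dimer inter-PAE was >15, to exclude likely homo-oligomers.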

[2] = folding stability dG unfold (combined trypsin and chymotrypsin); higher = more stable
Method in brief: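 Mini-proteins designed to be under 80 residues and free of cysteine were carried in a PA-tagged cDNA display construct and digested with trypsin and with chymotrypsin. Each protease was applied at 11 threefold-diluted concentrations, alongside a no-protease condition, before sequencing. K50 came from Bayesian fitting of the sequencing counts, and unfolding free energy was obtained by comparing it with a sequence-predicted unfolded-state K50 and a shared folded-state K50, for each protease separately or for both together. Designs were retained only if their AlphaFold2 dimer inter-PAE exceeded 15.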

## SAGGSAGGSAGGSSMKYFTRSASPDTTFTVKTPNGGVVNVTPTAAPGTYKYTFTLPGNSSAGGSAGGSAGGS [r4_360_JUSTAS]
[1]
  folding stability dG unfold: -0.42 ± 0.44 kcal/mol
[2]
  folding stability dG unfold: < -1 kcal/mol

## SAGGSAGGSAGGSSSMVEVEVESEEELEAYLEPLAARGVEVTLTSRDPETGRWLLRVTPPSAGGSAGGSAGG [r7_964_JUSTAS]
[1]
  folding stability dG unfold: 0.233 ± 0.2 kcal/mol
[2]
  folding stability dG unfold: -0.0911 ± 0.2 kcal/mol

## SAGGSAGGSAGGSVTIPVPENVKVRIYPPNGGRREVTAAAGATITVPAPGGEEVRIEVETSAGGSAGGSAGG [r7_357_TrMRF]
[1]
  folding stability dG unfold: 0.715 ± 0.021 kcal/mol
[2]
  folding stability dG unfold: 0.193 ± 0.1 kcal/mol

## SAGGSAGGSAGGSWRVRIDLPNGKSRTIPIKPGEEVDLNEIADELSDKYNIKSISIEEPSAGGSAGGSAGGS [r4_116_TrROS]
[1]
  folding stability dG unfold: 0.42 ± 0.14 kcal/mol
[2]
  folding stability dG unfold: -0.158 ± 0.29 kcal/mol

## SAGGSAGGSAGGTIKKVSDGTIVIPVPNPHQAEKFADTLMEKNNGRDVKIKVFPPEDFGPSAGGSAGGSAGG [r7_645_TrROS]
[1]
  folding stability dG unfold: -0.264 ± 0.1 kcal/mol
[2]
  folding stability dG unfold: < -1 kcal/mol

## SAGGSAGGSAGGVLYLPDDVKVELVEVTPDGVAKLRVYVYEKDDGDPLVPVPGYDPGAGSAGGSAGGSAGGS [r10_934_TrMRF]
[1]
  folding stability dG unfold: 0.126 ± 0.36 kcal/mol
[2]
  folding stability dG unfold: -0.777 ± 0.48 kcal/mol

## SAGGSAGGSAGGWIVRIEHGGKERMFQFDSPEEIKDQIRPMFPNGKKVKVEVMPPDDLKSAGGSAGGSAGGS [r10_1167_TrROS]
[1]
  folding stability dG unfold: -0.0912 ± 0.16 kcal/mol
[2]
  folding stability dG unfold: -0.483 ± 0.21 kcal/mol

## SAGGSAGGSAGIPADAPEAVVRLDLYPDGPDTVVTVEAPFKDIPLDDIPENAVVRLEASPLGSAGGSAGGSA [r18_21_TrMRF]
[1]
  folding stability dG unfold: 0.0909 ± 0.06 kcal/mol
[2]
  folding stability dG unfold: -0.539 ± 0.1 kcal/mol

## SAGGSAGGSAGKALVFDSPEDLVEKLKENGVELTDIAEVDAPGGPVVLAPIEGIPKPGFGSAGGSAGGSAGG [r11_141_TrMRF]
[1]
  folding stability dG unfold: 0.633 ± 0.065 kcal/mol
[2]
  folding stability dG unfold: 0.28 ± 0.16 kcal/mol

## SAGGSAGGSAGKKFKITEIHPGDNHHHITVKWKRDGKKRERTVMVPSGPEMAKKADIIIISAGGSAGGSAGG [r11_921_TrROS]
[1]
  folding stability dG unfold: -0.547 ± 0.48 kcal/mol
[2]
  folding stability dG unfold: < -1 kcal/mol

## SAGGSAGGSAGMEVIINDPEKAKNIPVNSKVKLPNGKEYKVKKVEYNPEIGYVKFIVSPESAGGSAGGSAGG [r11_316_TrMRF]
[1]
  folding stability dG unfold: -0.489 ± 0.37 kcal/mol
[2]
  folding stability dG unfold: -0.588 ± 0.34 kcal/mol

## SAGGSAGGSAGMKLIEFPPGEEFEEFIKNLPGPIKSVERTKIEPEKVLAKIVLELPPSNLSAGGSAGGSAGG [r11_143_JUSTAS]
[1]
  folding stability dG unfold: -0.545 ± 0.36 kcal/mol
[2]
  folding stability dG unfold: < -1 kcal/mol

## SAGGSAGGSAGMKTRVTTFTYTEPVLLPDTGELRTVTTTVTFNKPLPEEPLFFTNTPNAGSAGGSAGGSAGG [r17_493_JUSTAS]
[1]
  folding stability dG unfold: 0.149 ± 0.19 kcal/mol
[2]
  folding stability dG unfold: -0.158 ± 0.19 kcal/mol

## SAGGSAGGSAGMKVKSIKKLSKDPKNGKETFEITIPENGEKVTIETEPGKFEEVKKKLLKSAGGSAGGSAGG [r17_111_JUSTAS]
[1]
  folding stability dG unfold: 0.359 ± 0.089 kcal/mol
[2]
  folding stability dG unfold: -0.0508 ± 0.13 kcal/mol

## SAGGSAGGSAGMLKTIVIKELTPEAKKALLENPDLPEDAEVPTLVEELTVPVKRTPKGLVSAGGSAGGSAGG [r17_194_JUSTAS]
[1]
  folding stability dG unfold: -0.0656 ± 0.077 kcal/mol
[2]
  folding stability dG unfold: -0.398 ± 0.13 kcal/mol

## SAGGSAGGSAGMLTTKTITLPHAPDDPAAFRAAVLKGLPPELPVLSVDYDPATGTGTVVASAGGSAGGSAGG [r11_698_JUSTAS]
[1]
  folding stability dG unfold: 0.0666 ± 0.31 kcal/mol
[2]
  folding stability dG unfold: < -1 kcal/mol

## SAGGSAGGSAGMPLEELAQEALNQFQENGEPVEIDIEVETPNGEYFPFEVEINGDGLKIRSAGGSAGGSAGG [r11_954_TrROS]
[1]
  folding stability dG unfold: 0.455 ± 0.068 kcal/mol
[2]
  folding stability dG unfold: -0.0909 ± 0.32 kcal/mol

## SAGGSAGGSAGMTLVKTYERFPETGTVVERLSAREPDGPTVPLEVTKVRPVAGEEPVPLLSAGGSAGGSAGG [r11_750_JUSTAS]
[1]
  folding stability dG unfold: -0.665 ± 0.23 kcal/mol
[2]
  folding stability dG unfold: < -1 kcal/mol
